Measured values published in patent US20230321183A1.

Molecular target: OTi TCR on OT-I mouse T cells
Assay: cell-based or functional assay

FITC-conjugated tetramer H2Kb-SIINFEKL (from UniProt P01901 22-305) (peptide-MHC)
cytotoxicity of human primary CD8 anti-FITC CAR T cells on OTi cells: > 50%
